Results: patent US9637768B2, “Method for preparing sialic acid derivative” (priority 2013, dated 2017)

Columns and labels:
[1] = tested on: Photobacterium damselae α-2,6-sialyltransferase (α2,6PdST), all mutants of Table 3 (I411T, L433S, L433T, I411T/L433S, I411T/L433T); experiment: kinetic parameters for α-2,6-sialyltransferase, all mutants (summary); format: biochemical; conditions: all mutants vs wild type
Method: The kinetic parameters, kcat and Km, were obtained from nonlinear regression analysis of Michaelis-Menten equation using Sigma Plot (SigmaPlot) program.
In order to appreciate the effect of each mutation on the donor substrate and the acceptor substrate, kinetic parameters for a single amino acid substitution mutant and a combinatorial mutant were measured.

[2] = tested on: CC(=O)N[C@H]1[C@H]([C@H](O)[C@H](O)CO)O[C@](OP(=O)(O)OC[C@H]2O[C@@H](n3ccc(N)nc3=O)[C@H](O)[C@@H]2O)(C(=O)O)C[C@@H]1O; experiment: purified protein, by the assay type; conditions: other: room temperature, substrate 0.1 to 30 mM
α-2,6-sialyltransferase = tested on: α-2,6-sialyltransferase
Description: The entire vector was subjected to PCR using a primer into which NNK sequence (a sequence where N is A, C, G or T, K is G or T) is introduced, the NNK sequence obtained by randomly replacing ATT and CTG sequences corresponding to amino acid positions 411 and 433 of α-2,6-sialyltransferase, thereby constructing a library. In α-2,6-sialyltransferase of the present invention, methionine is the first amino acid when counting from the first methionine sequence. In order to remove the original plasmid, the amplified gene of the sialyltransferase including the vector sequence was treated with Dpn enzyme and transformed into E. coli DH5a. Mutant genes were extracted from all of generated colonies and transformed into E. coli BW25113 (DE3). The transformed individual colonies were inoculated in the LB medium (500 μL) containing ampicillin in 96 well and shake-cultured at 30 to 37° C. for 18 to 24 hours, and then some of the culture liquid was inoculated in new LB medium (500 μL) containing 100 μg mL^−1 ampicillin and IPTG and cultured at 18 to 30° C. for 18 to 40 hours. […]
The wild type strain and mutants of sialyltransferase transformed into E. coli BW25113 (DE3) were expressed using the inducer IPTG in a culture volume of 50 mL, and purified to obtain only pure protein using Ni-NTA column, and specific activity and kinetic parameters were measured.

`OC[C@H]1O[C@@H](O[C@H]2[C@H](O)[C@@H](O)C(O)O[C@@H]2CO)[C@H](O)[C@@H](O)[C@H]1O` (stereo partly drawn) [Lac, lactose] was tested, and the “binding force with the acceptor substrate” value [1] was “reduced”.

Work on “Pasteurella multocida (ATCC15742) α-2,3-sialyltransferase (α2,3PST), wild type, SEQ ID NO: 1 (Pasteurella multocida)” yielded a Km ([2]; wild type) of 1830 µM.

“Pasteurella multocida α-2,3-sialyltransferase (α2,3PST) variant R313H (= R289H of SEQ ID NO: 1), SEQ ID NO: 3 (Pasteurella multocida; R313H)” was tested, and the Km ([2]; R313H) was 3240 µM.

Molecule “Pasteurella multocida α-2,3-sialyltransferase (α2,3PST) variant R313H/T265S (= R289H/T241S of SEQ ID NO: 1), SEQ ID NO: 6 (Pasteurella multocida; R313H/T265S)” has a Km ([2]; R313H/T265S) of 3940 µM.

In the case of “Pasteurella multocida α-2,3-sialyltransferase (α2,3PST) variant R313N (= R289N of SEQ ID NO: 1), SEQ ID NO: 2 (Pasteurella multocida; R313N)”, the Km ([2]; R313N) is reported as 2510 µM.

“Pasteurella multocida α-2,3-sialyltransferase (α2,3PST) variant R313N/T265S (= R289N/T241S of SEQ ID NO: 1), SEQ ID NO: 5 (Pasteurella multocida; R313N/T265S)” was tested, and the Km ([2]; R313N/T265S) was 3330 µM.

“Pasteurella multocida α-2,3-sialyltransferase (α2,3PST) variant T265S (= T241S of SEQ ID NO: 1), SEQ ID NO: 4 (Pasteurella multocida; T265S)” gave a Km ([2]; T265S) of 2230 µM.

B1: L433T (protein)
chain: MCNSDNTSLKETVSSNSADVVETETYQLTPIDAPSSFLSHSWEQTCGTPILNESDKQAISFDFVAPELKQDEKYCFTFKGITGDHRYITNTTLTVVAPTLEVYIDHASLPSLQQLIHIIQAKDEYPSNQRFVSWKRVTVDADNANKLNIHTYPLKGNNTSPEMVAAIDEYAQSKNRLNIEFYTNTAHVFNNLPPIIQPLYNNEKVKISHISLYDDGSSEYVSLYQWKDTPNKIETLEGEVSLLANYLAGTSPDAPKGMGNRYNWHKLYDTDYYFLREDYLDVEANLHDLRDYLGSSAKQMPWDEFAKLSDSQQTLFLDIVGFDKEQLQQQYSQSPLPNFIFTGTTTWAGGETKEYYAQQQVNVINNAINETSPYYLGKDYDLFFKGHPAGGVINDIILGSFPDMINIPAKISFEVLMMTDMLPDTVAGIASSTYFTIPADKVNFIVFTSSDTITDREEALKSPLVQVMLTLGIVKEKDVLFWA
modifications: L433T
B1 was tested, and the “activity increase compared to the wild type strain” value (α-2,6-sialyltransferase; mutant search by colorimetry) was 3 times and the “Rel. Specific Ac (%)” value (α-2,6-sialyltransferase; α2,6PdST, relative to wild type, purified protein, CMP-N-acetylneuraminic acid and lactose) was 296%.
